Results: article PMC5678078 (2017)

T1: recombinant matriptase protease domain with an N-terminal thioredoxin tag (Trx-MTX PD) (human) (UniProt Q9Y5Y6)
T1 sequence: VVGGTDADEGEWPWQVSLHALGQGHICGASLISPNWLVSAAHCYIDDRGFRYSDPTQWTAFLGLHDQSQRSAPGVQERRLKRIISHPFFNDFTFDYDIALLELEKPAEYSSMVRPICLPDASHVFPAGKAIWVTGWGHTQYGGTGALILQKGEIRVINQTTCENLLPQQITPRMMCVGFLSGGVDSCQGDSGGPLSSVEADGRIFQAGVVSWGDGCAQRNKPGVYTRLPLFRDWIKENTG

T2: recombinant matriptase protease domain with an N-terminal thioredoxin tag (Trx-MTX PD) (human, UniProt Q9Y5Y6 615-854)
T2 chain: T1 sequence

B1: GST fusion protein of HAI-2 Kunitz domain 1 (GST-KD1) (domain or fragment)
chain: CLVSKVVGRCRASMPRWWYNVTDGSCQLFVYGGCDGNSNNYLTKEECLKKC
B2: recombinant HAI-2 wild type (rHAI-2 WT) from the baculovirus expression system (domain or fragment)
chain: ADRERSIHDFCLVSKVVGRCRASMPRWWYNVTDGSCQLFVYGGCDGNSNNYLTKEECLKKCATVTENATGDLATSRNAADSSVPSAPRRQDSEDHSSDMFNYEEYCTANAVTGPCRASFPRWYFDVERNSCNNFIYGGCRGNKNSYRSEEACMLRCFRQQENPPLPLGSK
B3: GST fusion protein of HAI-2 Kunitz domain 2 (GST-KD2) (domain or fragment)
chain: CTANAVTGPCRASFPRWYFDVERNSCNNFIYGGCRGNKNSYRSEEACMLRC

Assays:
[1] = molecular target: T1, recombinant matriptase protease domain with an N-terminal thioredoxin tag (Trx-MTX PD) (human)
[2] = molecular target: T1, recombinant matriptase protease domain with an N-terminal thioredoxin tag (Trx-MTX PD) (human); assay: SPR; BIAcore; Trx-MTX PD amine-coupled to a CM5 chip; GST fusion proteins as analytes at 30 µl/min, 120 sec association, 180 sec dissociation; 10 mM HEPES, 150 mM NaCl, pH 7.4; KD by affinity analysis (BIAevaluation), called estimated
[3] = molecular target: T2, recombinant matriptase protease domain …; assay: SPR

Molecule | Kd [2] [nM] | Kd [3] [nM] | also measured
recombinant HAI-2 KD2-deleted mutant (rHAI-2ΔKD2) from the baculovirus expression system (from UniProt O43291 28-197) (domain or fragment) | – | – | inhibition of the in vitro proteolytic activity of Trx-MTX PD (100 nM) on Boc-Gln-Ala-Arg-AMC by rHAI-2ΔKD2 (500 nM) [1]: 99%
recombinant HAI-2 KD1-deleted mutant (rHAI-2ΔKD1) from the baculovirus expression system (from UniProt O43291 28-197) (domain or fragment) | – | – | inhibition of the in vitro proteolytic activity of Trx-MTX PD (100 nM) on Boc-Gln-Ala-Arg-AMC by rHAI-2ΔKD1 (500 nM) [1]: 80%
B1 | 10 | 45.7 | –
B2 | – | – | inhibition of the in vitro proteolytic activity of Trx-MTX PD (100 nM) on Boc-Gln-Ala-Arg-AMC by rHAI-2 WT (500 nM) [1]: 99%
B3 | 10 | 35.5 | –
